Molecular target: one CLL cell line
Test: avidity constant derived from LD50 of complement dependent cytotoxicity on CLL cells

## Lym-1 antibody
  avidity: 1.1e+08

Source: patent US6783936
